Measurements published in publication PMC2119541.
“And” between values parts separate entries of the source, which are not always exact repeats. Equal entries are not always repeated.

Experiments:
Test in all cases: radioligand binding
[1] = biological target: laminin and collagen type IV (isotonic conditions with Ca2+)
collagen type IV = collagen type IV (UniProt P02462)
collagen type IX = collagen type IX (UniProt P20849)
collagen type III = collagen type III (UniProt P02461)
collagen type V = collagen type V (UniProt P20908)
UniProt P20908, sequence (P20908 38-1605, chain 1 of 2): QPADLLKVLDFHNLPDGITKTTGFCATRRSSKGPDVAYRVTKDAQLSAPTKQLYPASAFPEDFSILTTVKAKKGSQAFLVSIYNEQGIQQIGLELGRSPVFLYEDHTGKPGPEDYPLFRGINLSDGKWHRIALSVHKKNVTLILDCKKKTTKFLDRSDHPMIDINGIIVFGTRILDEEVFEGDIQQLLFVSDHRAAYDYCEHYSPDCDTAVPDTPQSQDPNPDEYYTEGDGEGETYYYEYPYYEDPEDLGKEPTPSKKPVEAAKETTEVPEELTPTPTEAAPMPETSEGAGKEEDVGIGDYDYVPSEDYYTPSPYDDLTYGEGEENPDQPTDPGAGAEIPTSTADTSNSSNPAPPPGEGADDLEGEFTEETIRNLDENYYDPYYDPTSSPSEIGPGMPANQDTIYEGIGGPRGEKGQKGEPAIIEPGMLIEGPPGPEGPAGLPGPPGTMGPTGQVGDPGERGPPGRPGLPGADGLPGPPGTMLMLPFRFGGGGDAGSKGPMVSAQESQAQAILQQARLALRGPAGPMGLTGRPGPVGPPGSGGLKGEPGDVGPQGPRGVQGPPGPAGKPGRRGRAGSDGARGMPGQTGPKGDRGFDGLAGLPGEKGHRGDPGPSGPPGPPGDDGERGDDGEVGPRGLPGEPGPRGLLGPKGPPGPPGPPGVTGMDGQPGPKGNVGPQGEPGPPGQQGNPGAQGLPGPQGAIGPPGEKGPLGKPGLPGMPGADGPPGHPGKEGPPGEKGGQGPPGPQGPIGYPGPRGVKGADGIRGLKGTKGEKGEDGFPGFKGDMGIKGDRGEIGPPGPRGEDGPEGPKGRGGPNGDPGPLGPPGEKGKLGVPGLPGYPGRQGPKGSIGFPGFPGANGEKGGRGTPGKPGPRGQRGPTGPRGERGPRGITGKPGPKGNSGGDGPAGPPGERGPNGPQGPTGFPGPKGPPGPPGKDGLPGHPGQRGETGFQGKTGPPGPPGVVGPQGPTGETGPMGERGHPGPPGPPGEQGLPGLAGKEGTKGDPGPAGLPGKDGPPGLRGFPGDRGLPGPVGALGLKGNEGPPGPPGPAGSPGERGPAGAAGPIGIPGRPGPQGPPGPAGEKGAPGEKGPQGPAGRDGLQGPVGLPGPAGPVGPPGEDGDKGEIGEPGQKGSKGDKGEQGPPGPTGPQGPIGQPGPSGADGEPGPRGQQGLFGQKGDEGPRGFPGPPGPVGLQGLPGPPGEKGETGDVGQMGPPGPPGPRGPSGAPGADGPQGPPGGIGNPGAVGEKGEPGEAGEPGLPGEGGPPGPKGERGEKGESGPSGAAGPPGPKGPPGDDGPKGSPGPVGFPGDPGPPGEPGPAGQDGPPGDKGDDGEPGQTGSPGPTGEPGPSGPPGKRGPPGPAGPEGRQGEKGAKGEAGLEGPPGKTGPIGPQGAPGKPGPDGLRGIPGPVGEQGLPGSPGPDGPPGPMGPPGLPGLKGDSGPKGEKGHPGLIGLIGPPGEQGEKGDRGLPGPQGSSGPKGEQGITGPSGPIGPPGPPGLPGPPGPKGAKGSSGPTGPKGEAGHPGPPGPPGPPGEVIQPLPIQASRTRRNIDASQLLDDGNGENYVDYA
UniProt P20908, sequence (P05997 27-1229, chain 2 of 2, further chain): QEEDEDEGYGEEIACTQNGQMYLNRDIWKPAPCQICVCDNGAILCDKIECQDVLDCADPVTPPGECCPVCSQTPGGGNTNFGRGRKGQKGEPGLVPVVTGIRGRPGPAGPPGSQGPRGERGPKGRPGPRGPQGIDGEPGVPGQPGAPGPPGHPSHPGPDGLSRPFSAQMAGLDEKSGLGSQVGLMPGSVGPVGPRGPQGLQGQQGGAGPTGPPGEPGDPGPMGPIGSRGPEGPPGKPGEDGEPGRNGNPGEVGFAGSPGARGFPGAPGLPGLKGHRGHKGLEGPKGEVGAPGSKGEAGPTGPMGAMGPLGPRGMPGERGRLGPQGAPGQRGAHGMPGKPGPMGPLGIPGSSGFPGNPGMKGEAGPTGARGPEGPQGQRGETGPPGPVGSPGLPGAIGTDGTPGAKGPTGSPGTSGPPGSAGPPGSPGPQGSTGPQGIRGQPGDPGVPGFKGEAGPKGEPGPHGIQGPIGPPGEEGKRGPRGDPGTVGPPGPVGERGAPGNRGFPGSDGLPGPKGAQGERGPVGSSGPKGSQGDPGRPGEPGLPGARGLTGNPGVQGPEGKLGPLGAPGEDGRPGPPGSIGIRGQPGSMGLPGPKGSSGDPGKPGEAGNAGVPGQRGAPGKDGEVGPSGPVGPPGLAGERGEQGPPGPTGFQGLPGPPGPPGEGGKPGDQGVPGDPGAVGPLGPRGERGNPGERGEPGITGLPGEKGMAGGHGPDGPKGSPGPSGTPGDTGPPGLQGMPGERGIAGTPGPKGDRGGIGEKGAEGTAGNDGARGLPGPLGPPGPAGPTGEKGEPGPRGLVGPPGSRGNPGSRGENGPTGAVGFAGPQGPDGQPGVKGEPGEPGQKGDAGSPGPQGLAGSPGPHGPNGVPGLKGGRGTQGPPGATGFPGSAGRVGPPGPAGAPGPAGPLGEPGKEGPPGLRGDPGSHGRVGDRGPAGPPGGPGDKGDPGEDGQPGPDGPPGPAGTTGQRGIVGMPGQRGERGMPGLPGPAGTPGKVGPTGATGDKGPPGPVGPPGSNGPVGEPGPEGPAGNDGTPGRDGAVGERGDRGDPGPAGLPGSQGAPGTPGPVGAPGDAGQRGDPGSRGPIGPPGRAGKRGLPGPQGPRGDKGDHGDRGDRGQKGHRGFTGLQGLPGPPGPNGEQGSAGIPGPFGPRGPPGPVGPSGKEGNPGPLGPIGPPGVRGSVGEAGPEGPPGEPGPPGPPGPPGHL

[2] = biological target: Englebreth-Holm sarcoma laminin (UniProt P19137)

UniProt P02461, sequence (P02461 24-1221): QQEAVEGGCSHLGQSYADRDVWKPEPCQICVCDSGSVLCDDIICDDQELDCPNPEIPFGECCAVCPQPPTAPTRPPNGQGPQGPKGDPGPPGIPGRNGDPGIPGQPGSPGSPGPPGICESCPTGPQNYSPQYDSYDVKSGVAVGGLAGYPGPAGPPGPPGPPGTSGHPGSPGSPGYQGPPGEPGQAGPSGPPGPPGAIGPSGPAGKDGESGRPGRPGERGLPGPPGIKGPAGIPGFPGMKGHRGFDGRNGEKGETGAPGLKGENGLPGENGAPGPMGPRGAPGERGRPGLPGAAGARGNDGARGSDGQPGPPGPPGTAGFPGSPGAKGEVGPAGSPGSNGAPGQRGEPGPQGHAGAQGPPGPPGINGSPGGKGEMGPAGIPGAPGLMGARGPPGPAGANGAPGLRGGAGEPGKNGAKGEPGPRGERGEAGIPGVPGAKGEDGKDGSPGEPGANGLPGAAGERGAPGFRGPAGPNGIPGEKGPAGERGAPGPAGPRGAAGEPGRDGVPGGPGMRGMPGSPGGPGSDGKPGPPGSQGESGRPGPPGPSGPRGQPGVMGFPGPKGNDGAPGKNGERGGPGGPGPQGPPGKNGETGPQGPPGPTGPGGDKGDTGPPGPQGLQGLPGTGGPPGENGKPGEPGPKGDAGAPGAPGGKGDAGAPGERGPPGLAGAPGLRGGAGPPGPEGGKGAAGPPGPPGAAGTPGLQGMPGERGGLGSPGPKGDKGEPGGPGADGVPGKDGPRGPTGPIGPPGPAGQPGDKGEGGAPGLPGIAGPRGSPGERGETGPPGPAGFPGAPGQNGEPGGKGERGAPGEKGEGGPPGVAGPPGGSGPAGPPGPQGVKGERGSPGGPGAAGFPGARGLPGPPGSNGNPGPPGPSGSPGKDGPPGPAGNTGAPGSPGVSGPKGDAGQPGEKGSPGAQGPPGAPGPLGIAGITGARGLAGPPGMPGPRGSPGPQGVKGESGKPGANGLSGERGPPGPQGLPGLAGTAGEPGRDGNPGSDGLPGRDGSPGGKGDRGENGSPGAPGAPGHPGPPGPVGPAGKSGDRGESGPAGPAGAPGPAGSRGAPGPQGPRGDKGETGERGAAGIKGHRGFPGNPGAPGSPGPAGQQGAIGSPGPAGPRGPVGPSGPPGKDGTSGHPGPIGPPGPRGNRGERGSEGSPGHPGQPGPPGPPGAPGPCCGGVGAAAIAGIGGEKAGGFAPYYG

fold binding over binding to BSA [1]: 5 fold and 7 fold | fold binding over binding to BSA (collagen type IV): < 7 fold | percent of the total input bound (collagen type IV): 30% | fold binding over binding to BSA (collagen type IX): < 7 fold | percent of the total input bound (collagen type IX): 30% | fold binding over binding to BSA (collagen type III): 10 fold | percent of the added astrochondrin bound (collagen type III): < 40% | percent of the total input bound (collagen type III): < 80% | percent of the total input bound at 15 mM NaCl (collagen type III): 30% | fold binding over binding to BSA (collagen type V): 10 fold | percent of the added astrochondrin bound (collagen type V): < 40% | percent of the total input bound (collagen type V): < 80% | percent of the total input bound at 15 mM NaCl (collagen type V): 30% | fold binding over binding to BSA [2]: 3.5 fold | percent of the total input bound [2]: 15%
Substance: astrochondrin (natural protein)
